# Results published in patent CN114716553A (BEIJING KENUO XINCHENG TECH CO LTD, dated 2022).
# Experiments:
# [1] = biological target: T1, 人LILRB4 (on LILRB4-positive cells) (human, UniProt Q8NHJ6 22-448); test: flow cytometry on RPMI-8226 cells
# T1 construct: whole, on cells; also called 人LILRB4阳性细胞THP-1细胞; 人LILRB4阳性细胞RPMI-8226细胞
# [2] = biological target: T2, 人LILRB4重组蛋白(购于义翘，Cat.16742-H08H) (human, UniProt Q8NHJ6 22-259); test: BLI (Octet QKe), antibody captured on AHC probe, antigen 100 nM, 1:1 Langmuir fit
# T2 construct: Bought protein; also called human LILRB4 recombinant protein
# [3] = biological target: T1, 人LILRB4 (on LILRB4-positive cells); test: cell-based or functional assay
# [4] = biological target: T1, 人LILRB4 (on LILRB4-positive cells); test: flow cytometry on THP-1 cells
# [5] = biological target: T3, 人LILRB4的重组蛋白 (phage library screening antigen) (human, UniProt Q8NHJ6 22-259, limits assumed); test: solid phase screening of phage library
# T3 construct: May be the same protein as the immunogen or as m14
EC50 [1] [nM],Kd [2] [nM],koff [2] [s⁻¹],kon [2] [M⁻¹ s⁻¹],"EC50 of T cell activation (LILRB4 Effector Reporter cells with APOE/TCR Activator/CHO cells, luciferase) [3] [nM]",EC50 [4] [nM],binding result [5],Binder
0.215,0.948,0.000175,185000,,,,"hzD2-2 (Fc fusion, Humanised VHH of D2 fused to human Fc, expressed in HEK293; also called D2人源化分子hzD2-2; hzD2-2人源化抗体; not shown: human Fc (hFc) from the expression vector) EVQLVESGGGLVQPGGSLRLSCAASGYTASSDYMGWFRQAPGKEREGVACINTNGGETYHANSVSGRFTISRDNSKNTLYLQMNSLRAEDTAVYYCARGRTNPDSYGGSRCLLAPEYTYWGQGTLVTVSS"
0.227,0.721,0.00022,305000,0.094,1.43,,"对照抗体193 (antibody, IgG1, V domains shown, Variable regions cloned into vectors with human kappa / IgG1 constant regions and expressed in HEK293; also called 同靶点对照抗体193) VH: EVQLVESGGGLVQPGGSLRLSCAASGFSLSSSYWISWVRQAPGKGLEWIGSIDSGSVGITYYATWVKGRFTISRDNSKNTLYLQMNSLRAEDTAVYYCARHGDNWALDLWGQGTLVTVSS VL: DIQMTQSPSTLSASVGDRVTITCRASQSINSWLAWYQQKPGKAPKLLIYKASTLASGVPSRFSGSGSGTEFTLTISSLQPDDAATYYCQHGYIRGDLDNVFGGGTKVEIK"
,,,,,,binds,"C3 (VHH, also called 噬菌体展示的纳米抗体C3) VHH: QVQLQESGGGLVQAGGSLRLSCVASEYIYTRCNMAWYRQAPGKERELVSAFDIGDTLYYADSVKGRFTISQDNAKNTVYLQMNSLKPEDTAMYYCNTVGVKPGGGSWCFNPDYWGQGTQVTVSS"

# More lines, now with the values behind:
Binder,EC50 [1] [nM],Kd [2] [nM],koff [2] [s⁻¹],kon [2] [M⁻¹ s⁻¹],"EC50 of T cell activation (LILRB4 Effector Reporter cells with APOE/TCR Activator/CHO cells, luciferase) [3] [nM]",EC50 [4] [nM],binding result [5]
"hzD2-1 (Fc fusion, Humanised VHH of D2 fused to human Fc, expressed in HEK293; also called D2人源化分子hzD2-1; hzD2-1人源化抗体; not shown: human Fc (hFc) from the expression vector) EVQLVESGGGLVQPGGSLRLSCAASGFTVSSDYMGWFRQAPGKEREGVACINTNGGETYHANSVSGRFTISRDNSKNTLYLQMNSLRAEDTAVYYCARGRTNPDSYGGSRCLLAPEYTYWGQGTLVTVSS",0.221,1.03,0.000172,167000,,,
"B2 (VHH, also called 噬菌体展示的纳米抗体B2) VHH: QVQLQESGGGPVQAGGSLRLSCAASEYSYRRHCMAWFRQAPGKEREGVATIYTGGGITRYADSVKGRFTISQDNAKNTVYLQMNSLKPEDTAMYYCAADIASRACVTDPFPLERARFSAWGQGTQVTVSS",,,,,,,binds
"F1 (VHH, also called 噬菌体展示的纳米抗体F1) VHH: QVQLQESGGGLVQAGGSLRLSCAASEYSYRRHCMAWFRQAPGKEREGVATIYTGGGITRYADSVKGRFTISQDNAKNTVYLQMNSLKPEDTAMYYCAADIASRACVTDPFPLERARFSAWGQGTQVTVSS",,,,,,,binds
